We go through two molecules from US20050043231A1, “Therapy for growth hormone induced insulin resistance in juveniles with growth disorders” (priority 2001, published 2005).

A short description of data set [1]: Fasting serum IGF-I, IGF-II and leptin and BMI SDS in short SGA children on rhGH therapy. It counts as in vivo, human. From the text: All subjects were born SGA, had marked short stature (height approximately—3 standard deviation score (SDS)) with a height velocity<25th percentile for >1 year prior to starting rhGH therapy. SGA was defined as a birth weight<10th percentile for gestational age. Additional enrolment criteria for inclusion into the study included; no change in Tanner pubertal stage and/or testicular volumes throughout the study period, normal GH response to clonidine stimulation (defined as a GH level≧7 μgm/L), absence of both islet cell antibodies (<10 Juvenile Diabetes Foundation units) and insulin autoantibodies to exclude type 1 prediabetes. […] Body mass index (BMI) was used as a measure of relative obesity and expressed as BMI SDS.
(§1) Plasma glucose concentration was measured using a Hitachi 911 automated random access analyser (Tokyo, Japan) with an interassay coefficient variation of 1.2% (Trinder P. Determination of blood glucose using an oxidase-peroxidase system with a non-carcinogenic chromogen. J Clin Pathol 1995; 22: 158-61). Insulin was determined by Abbotts IMX microparticle enzyme immunoassay with an interassay coefficient of variation of <5%. Plasma IGF-I was measured using an established IGF binding protein blocked radioimmunoassay (Blum et al. Radioimmunoassays for insulin-like growth factors and their binding proteins. Growth Reg. 1994; 4: (Suppl.) 11-19). […]

A short description of data set [2]: Insulin sensitivity by Bergman's minimal model (frequently sampled iv glucose tolerance test with tolbutamide) in short SGA children on rhGH therapy. Format: in vivo, human.
From the text: All subjects were born SGA, had marked short stature (height approximately—3 standard deviation score (SDS)) with a height velocity<25th percentile for >1 year prior to starting rhGH therapy. SGA was defined as a birth weight<10th percentile for gestational age. Additional enrolment criteria for inclusion into the study included; no change in Tanner pubertal stage and/or testicular volumes throughout the study period, normal GH response to clonidine stimulation (defined as a GH level≧7 μgm/L), absence of both islet cell antibodies (<10 Juvenile Diabetes Foundation units) and insulin autoantibodies to exclude type 1 prediabetes. Prepubertal subjects were defined as males with a testicular volume<4 ml and girls with tanner stage 1 breast development. Subjects were excluded if; a chromosomal, intrauterine infection or syndromal cause for SGA was identified, a first degree relative had type 2 diabetes mellitus, or medical therapy was taken that was known to influence SI. Subjects were recruited from the Endocrinology Clinics at Starship Children's Hospital. Birth weight and length were converted into SDSs to correct for age and sex. Body mass index (BMI) was used as a measure of relative obesity and expressed as BMI SDS.
Insulin sensitivity (SI) was measured in 11 subjects prior to and 12 subjects during rhGH treatment. In addition five prepubertal subjects agreed to have rhGH therapy suspended for three months with reassessment of SI. Bergman's minimal model was used to measure SI, acute insulin response (AIR) and glucose effectiveness (Sg). The data was provided from a 90 min frequently sampled iv glucose tolerance test with tolbutamide, which had been modified and validated for use in children as previously described (Cutfield et al. 1990). SI is a measure of insulin mediated glucose uptake, AIR a measure of insulin secretory capacity and Sg is a measure of glucose stimulated glucose uptake independent of insulin. These three indices are characteristic measurements useful for determining glycemic states. Plasma glucose and insulin was measured from all samples and the values used for measurement of SI, AIR and Sg. Approval for the study was provided by the North Health Ethics Committee and signed, informed consent was obtained from subjects and their parents.
as §1, with “11-19). The IGF-I detection limit was 1.3 ng/ml with intra-assay and inter-assay coefficients of variation of 5.0% and 9.2%, respectively. Plasma IGF-II samples were intially treated with acid-ethanol cryoprecipitation to remove IGF II from binding proteins. IGF II was then measured by RIA using a highly specific polyclonal antiserum (Blum et al. A specific radioimmunoassay for insulin-like growth factor II. The interference of IGF binding proteins can be blocked by excess IGF-I. Acta Endcrinol (Copenh) 1988; 129:427-435).” for “11-19).”

The nature of data set [3]: Fasting plasma insulin, glucose, IGF-I and FFA in IUGR rats treated for 28 days. Format: in vivo, rat. The protocol:
(§2) Studies of insulin resistance in vivo in rats were carried out in animals in which insulin resistance was produced by fetal undernutrition (“IUGR”) as described previously (Woodall et al. 1996). Virgin Wistar rats (age 100±5 days) were time mated using a rat estrus cycle monitor to assess the stage of estrus of the animals prior to introducing the male. After confirmation of mating, rats were housed individually in standard rat cages containing wood shavings as bedding and free access to water. All rats were kept in the same room with a constant temperature maintained at 25° C. and a 12-h light: 12-h darkness cycle. Animals received an undernutrition diet throughout pregnancy that was 30% of an ad libitum (“AD”) diet. Food intake and maternal weights were recorded daily until birth. A total of 40 male pups were recruited for the study. After birth, pups were weighed and litter size recorded. Litter size was then adjusted to eight pups to ensure standardised nutrition. Male pups from undernourished mothers were cross-fostered onto dams which received AD feeding throughout pregnancy to ensure post-natal viability. After weaning all male offspring were fed a hypercaloric diet ad libitum for the remainder of the study (total digestible energy 4846 kcal/kg, protein 31.8%, fat 30%, fat/energy ratio 55.72%, protein/energy ratio 26.25%). The fat content of the hypercaloric diet was chosen to be typical of many Western diets known to be associated with abnormalities in glucose metabolism in humans.
At 25 days of age, three days after weaning, study animals were enrolled into treatment groups for 28 days. The study groups were weight matched. The 40 study males were divided into four treatment groups, each of 10 animals; (a) no treatment (control group), (b) troglitazone and metformin, (c) recombinant bovine GH (GH) and (d) GH, troglitazone and metformin. […]
(§3) Troglitazone was added to food at approximately 100 mg/kg/day based on daily food consumption. Metformin was mixed with drinking water and the dose calculated to 500 mg/kg/day based on daily water consumption. […] Body weight and food intake of all offspring were measured daily for the first 2 weeks then every second day until study completion. […]
At day 53, systolic blood pressure measurements were recorded using tail cuff plethysmography (Blood pressure analyser IITC, Life Science, Woodland Hills, Calif., USA) as described previously (Vickers et al. 2000). […] Pulses in pressure were recorded during deflation at a rate of 3 mmHg/sec and the reappearance of a pulse was used to determine systolic blood pressure. […]
IGF-I in rat blood plasma was measured using an IGF binding protein (IGFBP)-blocked rat RIA described previously (Blum et al. 1994). […] Rat insulin was measured by an in-house radioimmunoassay (Vickers et al. 2000, Lewis et al. 1999). […]

The nature of data set [4]: Tail cuff systolic blood pressure in IUGR rats. It counts as in vivo, rat. As to conditions: day 53, tail cuff, vs no treatment group and GH treated group. The protocol: Studies of insulin resistance in vivo in rats were carried out in animals in which insulin resistance was produced by fetal undernutrition (“IUGR”) as described previously (Woodall et al. 1996). Virgin Wistar rats (age 100±5 days) were time mated using a rat estrus cycle monitor to assess the stage of estrus of the animals prior to introducing the male. After confirmation of mating, rats were housed individually in standard rat cages containing wood shavings as bedding and free access to water. All rats were kept in the same room with a constant temperature maintained at 25° C. and a 12-h light: 12-h darkness cycle. Animals received an undernutrition diet throughout pregnancy that was 30% of an ad libitum (“AD”) diet. Food intake and maternal weights were recorded daily until birth. […] After birth, pups were weighed and litter size recorded. […]
as §3
At day 53, systolic blood pressure measurements were recorded using tail cuff plethysmography (Blood pressure analyser IITC, Life Science, Woodland Hills, Calif., USA) as described previously (Vickers et al. 2000). […]

Data set [5] can be described thus: Growth and body composition in IUGR rats. Format: in vivo, rat. How it is done: as §2
At 25 days of age, three days after weaning, study animals were enrolled into treatment groups for 28 days. The study groups were weight matched. […]
as §3
Statistical comparisons were carried out using the statistical package SAS (version 8) for personal computers. […] For analysis of growth and body composition data (BMI and % retroperitoneal fat), each of the four treatment groups were analysed as separate treatments and then Dunnetts test was used to compare the three active treatments with the control group. Data are expressed as mean±SEM, with p<0.05.
Body composition was examined in several different ways; body mass index (BMI), retroperitoneal fat expressed as a percentage of body weight (retroperitoneal fat %) and gonadal fat expressed as a percentage of body weight (gonadal fat %). […]

With “rhGH: recombinant human growth hormone given to short SGA children”, the “adverse event: type 2 diabetes mellitus” value in data set [1] (one subject, 12 months after cessation of 4.1 years of rhGH therapy) is “developed type 2 diabetes mellitus”. Further, the “fasting serum IGF-I level” value in data set [1] (with rhGH therapy, 127±37 pretreatment, p<0.001) was found to be 189±46 μgm/l. In data set [2] (during rhGH therapy, p<0.009), the “compensatory rise in AIR (acute insulin response)” value is recorded as 123±59%. For the same molecule, in data set [2] (five prepubertal subjects, three months after rhGH therapy was suspended), the “recovery of SI after rhGH suspended” value was “no recovery in SI”. In addition, the “fall in SI during rhGH therapy, prepubertal children” value in data set [2] (prepubertal subjects) is recorded as 48%. Besides, the “fall in SI during rhGH therapy, pubertal subjects” value in data set [2] (pubertal subjects) was 35%. Moreover, the “fall in SI (insulin sensitivity) during rhGH therapy” value in data set [2] (short SGA children, all subjects, 21±6 months of rhGH, p=0.018) came to 44±10%.

B1: GH: recombinant bovine GH, subcutaneously 10 μgm/gm/day in two divided doses in IUGR rats (protein, UniProt P01246 27-217, looked up)
Somatotropin: AFPAMSLSGLFANAVLRAQHLHQLAADTFKEFERTYIPEGQRYSIQNTQVAFCFSETIPAPTGKNEAQQKSDLELLRISLLLIQSWLGPLQFLSRVFTNSLVFGTSDRVYEKLKDLEEGILALMRELEDGTPRAGQILKQTYDKFDTNMRSDDALLKNYGLLSCFRKDLHKTETYLRVMKCRRFGEASCAF
B1: the fasting insulin levels entry in data set [3] (28 days of treatment, GH vs no treatment p<0.0001, GH plus sensitisers vs GH alone p=0.01) is “substantially and significantly increased”. Besides, the “plasma free fatty acids (FFA)” value in data set [3] (fasting) was “fall observed in plasma FFA”. The same molecule had a plasma glucose in data set [3] (fasting, no treatment group 7.8±0.3, p<0.0001) of 11.9 ± 0.9 mmol/L. In data set [3] (p<0.0001), the “fasting IGF-I levels” value is “higher”. For the same molecule, the “systolic BP” value in data set [4] is given as “trend of increasing systolic BP”. Further, the “nose to anus length” value in data set [5] (IUGR rats at study end, no treatment group 179±2) was 188±1 mm. Moreover, the “gonadal fat % (percentage of body weight)” value in data set [5] (IUGR rats, across the four groups) is reported as “increase in gonadal fat %”. The “retroperitoneal fat % (percentage of body weight)” value in data set [5] (IUGR rats, no treatment group 0.97±0.06%) came to 0.69±0.05%. For the same molecule, in data set [5] (IUGR rats, no treatment group 6.8±0.2), the BMI was 6.9±0.1.
